From paper PMC12412624, “Engineered Cas12j‐8 is a Versatile Platform for Multiplexed Genome Modulation in Mammalian Cells”
Numbering of substitutions follows the chain as printed.

How the values were obtained:
[1] = tested on: T1, dCas12j-8 D234R D234R;D369A;E567A;D658A (bacteriophage (metagenome)); settings: HEK293T cells; panel 1c (compare within a panel only); scale: mean GFP / mean GFP of wild type, printed, no background subtraction
T1 sequence: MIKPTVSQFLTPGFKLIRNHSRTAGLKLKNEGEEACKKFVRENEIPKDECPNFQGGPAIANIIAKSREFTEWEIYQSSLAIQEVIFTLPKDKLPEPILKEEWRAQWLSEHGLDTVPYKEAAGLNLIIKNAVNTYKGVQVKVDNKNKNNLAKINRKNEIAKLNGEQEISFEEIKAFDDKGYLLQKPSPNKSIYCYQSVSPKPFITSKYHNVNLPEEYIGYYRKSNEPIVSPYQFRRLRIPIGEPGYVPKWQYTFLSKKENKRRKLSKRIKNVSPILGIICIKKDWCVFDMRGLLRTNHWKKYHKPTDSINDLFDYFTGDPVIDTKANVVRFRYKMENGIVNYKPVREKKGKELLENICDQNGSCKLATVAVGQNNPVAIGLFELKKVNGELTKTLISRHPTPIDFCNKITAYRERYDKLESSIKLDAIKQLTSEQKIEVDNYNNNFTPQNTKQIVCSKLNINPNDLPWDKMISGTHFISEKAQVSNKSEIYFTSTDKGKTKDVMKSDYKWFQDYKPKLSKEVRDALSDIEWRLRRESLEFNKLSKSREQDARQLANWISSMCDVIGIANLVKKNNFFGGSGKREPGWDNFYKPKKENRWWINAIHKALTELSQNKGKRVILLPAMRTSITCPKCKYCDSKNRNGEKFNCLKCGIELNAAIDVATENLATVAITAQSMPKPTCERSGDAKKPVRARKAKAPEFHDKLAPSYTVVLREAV

[2] = tested on: T2, dCas12j-8 D313R D313R;D369A;E567A;D658A (bacteriophage (metagenome)); settings: HEK293T cells; panel 1c (compare within a panel only); scale: mean GFP / mean GFP of wild type, printed, no background subtraction
T2 sequence: T1 sequence with R234D, D313R

[3] = tested on: T3, dCas12j-8 E157R E157R;D369A;E567A;D658A (bacteriophage (metagenome)); settings: HEK293T cells; panel 1c (compare within a panel only); scale: mean GFP / mean GFP of wild type, printed, no background subtraction
T3 sequence: T1 sequence with E157R, R234D

[4] = tested on: T4, dCas12j-8 E258R+D313R+D495R+E547R E258R;D313R;D495R;E547R;D369A;E567A;D658A (bacteriophage (metagenome)); settings: HEK293T cells; panel 1e (compare within a panel only); scale: mean GFP / mean GFP of wild type, printed, no background subtraction
T4 sequence: T1 sequence with R234D, E258R, D313R, D495R, E547R

CUUUCAAGACUAAUAGAUUGCUCCUUACGAGGAGACACUCCCUAUCAGUGAUAGAG / TTNACTCCCTATCAGTGATAGAG / CTCTATCACTGATAGGGAGTNAA [TetO]
binding signal [1]: 0.475
binding signal [2]: 1.59
binding signal [3]: 1.39
binding signal [4]: 4.81
